# From the supplement of paper PMC10567573
# B1: IKZF1 (parent)
# chain: RDPFECNMCGYHSQDRYEFSSHIT
# Variants of: B1
# Test: protein stability index of a GFP-peptide fusion (GPS, HEK-293T) (PSI 1-6); higher = more stable
# Conditions: c terminus: a fixed tail appended
# 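Note: lentivirally expressed fusions sorted by FACS into six bins by GFP to DsRed ratio, PSI derived from sequencing read proportions per bin multiplied by bin number.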
row,Variant,protein stability index
1,RDPFECNMCGYHSQHRYEFSSHIT,1.68
2,RDPFECNMCGYHSQSRYEFSSHIT,1.54
3,RDPFECNMCGYHSQFRYEFSSHIT,1.76
4,RDPFECNMCGYHSQLRYEFSSHIT,1.81
5,RDPFECNMCGYHSQGRYEFSSHIT,1.98
6,RDPFECNMCGYHSQTRYEFSSHIT,2.12
7,RDPFECNMCGYHSQYRYEFSSHIT,1.66
8,RDPFECNMCGYHSQRRYEFSSHIT,2.14
9,RDPFECNMCGYHSQQRYEFSSHIT,2.34
10,RDPFECNMCGYHSQIRYEFSSHIT,1.56
11,RDPFECNMCGYHSQWRYEFSSHIT,2.13
12,RDPFECNMCGYHSQCRYEFSSHIT,2.32
13,RDPFECNMCGYHSQERYEFSSHIT,1.87
14,RDPFECNMCGYHSQNRYEFSSHIT,2.17
15,RDPFECNMCGYHSQKRYEFSSHIT,1.65
16,RDPFECNMCGYHSQPRYEFSSHIT,2.01
17,RDPFECNMCGYHSQVRYEFSSHIT,1.8
18,RDPFECNMCGYHSQMRYEFSSHIT,2.02
19,RDPFECNMCGYHSQARYEFSSHIT,1.98
20,RDPFECNMCGYHSQDRYWFSSHIT,1.51
21,RDPFECNMCGYHSQDRYDFSSHIT,2.38
22,RDPFECNMCGYHSQDRYMFSSHIT,1.54
23,RDPFECNMCGYHSQDRYYFSSHIT,1.43
24,RDPFECNMCGYHSQDRYTFSSHIT,1.54

row,Variant,protein stability index
1,RDPFECNMCGYHSQDRYAFSSHIT,1.91
2,RDPFECNMCGYHSQDRYVFSSHIT,2.72
3,RDPFECNMCGYHSQDRYLFSSHIT,2.21
4,RDPFECNMCGYHSQDRYNFSSHIT,1.54
5,RDPFECNMCGYHSQDRYIFSSHIT,2.18
6,RDPFECNMCGYHSQDRYCFSSHIT,1.91
7,RDPFECNMCGYHSQDRYQFSSHIT,1.79
8,RDPFECNMCGYHSQDRYFFSSHIT,2.39
9,RDPFECNMCGYHSQDRYHFSSHIT,2.08
10,RDPFECNMCGYHSQDRYPFSSHIT,1.67
11,RDPFECNMCGYHSQDRYGFSSHIT,2.63
12,RDPFECNMCGYHSQDRYKFSSHIT,1.74
13,RDPFECNMCGYHSQDRYSFSSHIT,2.11
14,RDPFECNMCGYHSQDRYRFSSHIT,1.99
15,RDPFECNMCGYHSQDRYESSSHIT,2.6
16,RDPFECNMCGYHSQDRYEQSSHIT,3.14
17,RDPFECNMCGYHSQDRYEMSSHIT,2.28
18,RDPFECNMCGYHSQDRYEKSSHIT,3.06
19,RDPFECNMCGYHSQDRYEPSSHIT,3
20,RDPFECNMCGYHSQDRYEDSSHIT,3.29
21,RDPFECNMCGYHSQDRYEWSSHIT,1.44
22,RDPFECNMCGYHSQDRYELSSHIT,1.61
23,RDPFECNMCGYHSQDRYEESSHIT,3.35
24,RDPFECNMCGYHSQDRYEHSSHIT,3.13

row,Variant,protein stability index
1,RDPFECNMCGYHSQDRYEGSSHIT,3.13
2,RDPFECNMCGYHSQDRYENSSHIT,3.27
3,RDPFECNMCGYHSQDRYERSSHIT,2.38
4,RDPFECNMCGYHSQDRYETSSHIT,2.94
5,RDPFECNMCGYHSQDRYEYSSHIT,2.47
6,RDPFECNMCGYHSQDRYEASSHIT,2.59
7,RDPFECNMCGYHSQDRYECSSHIT,2.39
8,RDPFECNMCGYHSQDRYEISSHIT,2.4
9,RDPFECNMCGYHSQDRYEVSSHIT,2.08
10,RDPFECNMCGYHSQDRYEFCSHIT,3.08
11,RDPFECNMCGYHSQDRYEFKSHIT,1.93
12,RDPFECNMCGYHSQDRYEFRSHIT,2.08
13,RDPFECNMCGYHSQDRYEFESHIT,2.64
14,RDPFECNMCGYHSQDRYEFDSHIT,2.3
15,RDPFECNMCGYHSQDRYEFLSHIT,2.44
16,RDPFECNMCGYHSQDRYEFNSHIT,2.08
17,RDPFECNMCGYHSQDRYEFPSHIT,2.51
18,RDPFECNMCGYHSQDRYEFHSHIT,2.21
19,RDPFECNMCGYHSQDRYEFGSHIT,2.05
20,RDPFECNMCGYHSQDRYEFMSHIT,2.06
21,RDPFECNMCGYHSQDRYEFISHIT,2.06
22,RDPFECNMCGYHSQDRYEFFSHIT,1.59
23,RDPFECNMCGYHSQDRYEFASHIT,2.13
24,RDPFECNMCGYHSQDRYEFQSHIT,1.94

row,Variant,protein stability index
1,RDPFECNMCYYHSQDRYEFSSHIT,2.66
2,RDPFECNMCWYHSQDRYEFSSHIT,1.73
3,RDPFECNMCGAHSQDRYEFSSHIT,2.58
4,RDPFECNMCGMHSQDRYEFSSHIT,2.59
5,RDPFECNMCGSHSQDRYEFSSHIT,2.62
6,RDPFECNMCGIHSQDRYEFSSHIT,1.86
7,RDPFECNMCGCHSQDRYEFSSHIT,2.13
8,RDPFECNMCGVHSQDRYEFSSHIT,2.45
9,RDPFECNMCGTHSQDRYEFSSHIT,2.6
10,RDPFECNMCGQHSQDRYEFSSHIT,2.61
11,RDPFECNMCGRHSQDRYEFSSHIT,2.62
12,RDPFECNMCGLHSQDRYEFSSHIT,2.65
13,RDPFECNMCGFHSQDRYEFSSHIT,2.01
14,RDPFECNMCGEHSQDRYEFSSHIT,3.29
15,RDPFECNMCGDHSQDRYEFSSHIT,3.51
16,RDPFECNMCGWHSQDRYEFSSHIT,1.45
17,RDPFECNMCGKHSQDRYEFSSHIT,3.13
18,RDPFECNMCGNHSQDRYEFSSHIT,2.71
19,RDPFECNMCGGHSQDRYEFSSHIT,3.49
20,RDPFECNMCGHHSQDRYEFSSHIT,2.71
21,RDPFECNMCGPHSQDRYEFSSHIT,2.69
22,RDPFECNMCGYKSQDRYEFSSHIT,2.27
